Assay results: US20100196361A1, “Method of inhibition of vascular development using an antibody” (DYAX CORP., priority 2003, published 2010)
Changes are numbered by the printed parent chain. Entries after “also recorded” stand apart in the source; their conditions may differ.

B1: E3: human anti-Tie1 antibody from phage Fab library, reformatted as IgG; HC variable SEQ ID NO:114, LC variable SEQ ID NO:116 (antibody, V domains shown)
VH: EVQLLESGGGLVQPGGSLRLSCAASGFTFSMYGMVWVRQAPGKGLEWVSVISPSGGNTGYADSVKGRFTISRDNSKNTLYLQVNSLRAEDTAVYYCARAPRGYSYGYYYWGQGTLVTVSSASTKGPSVFPLAPSSKSTSGG
VL: DIQMTQSPLSLSASVGDRVTITCRASQGIGHYLAWYQQKPGKVPKLLIYTASTLQSGVPSRFSGSGSGTDFTLTINSLQPEDVATYYCQQFNSYPHTFGQGTRLDIK
modifications: IgG constant regions; Synthetically generated peptide
B2: DX-2210: E3 antibody in which the light chain has been germlined (antibody, V domains shown)
VH: B1 VH
VL: B1 VL with L9S, N76S, D105E

Tests used:
[1] = target: Tie1 (Homo sapiens, UniProt P35590); assay: Immunohistochemistry of matched tumor and normal tissue sections; type: binding; details: frozen sections
Experimental: To evaluate the binding of E3 to Tie1 in primary tumor and normal tissue the antibody was produced as an IgG and biotin labeled. The E3 antibody and two other anti Tie1 antibodies B2 and D11 were reformatted as full length IgG molecules. Nucleic acids encoding these IgGs were transiently transfected into HEK293T cells. Plasmid preparations for transient cell transfections were performed using the HP-[…]™ MIDI prep kit (Sigma, cat. no. NA0200). HEK293T cells (GenHunter Corp. cat. no. Q401) were seeded 24 hours before transfection; 6×10^6 cells were plated per 10-cm culture dish. Transfections were carried out using LIPOFECTAMINE™ 2000 reagent (Invitrogen, cat. no. 11668019) following the manufacturer's instructions. Five micrograms of plasmid DNA was used per 10-cm dish. Cells were cultured in DMEM (Invitrogen, cat. no. 31966021) supplemented with 10% “ultra-low IgG” fetal calf serum (Invitrogen, cat. no. 16250078), at 37° C., 5% CO2, in a water saturated atmosphere. Conditioned media were harvested 72 hours and 144 hours after transfection, pooled and sterile filtered.
The Tie1 antibodies were biotinylated using the EZ-link Sulfo-NHS-SS-Biotin (Pierce, Cat. 21331). For Tie1/Fc and Tie1-His, the reaction was performed for 2 hours on ice in 50 mM sodium carbonate buffer, pH 9.6, in the presence of a 5-fold molar excess of biotinylating agent. For the antibodies, the reaction was performed for 2 hours on ice in PBS, in the presence of a 15-fold molar excess of EZ-link Sulfo-NHS-SS-Biotin. The reaction was stopped by the addition of Tris-HCl, pH 7.5 (50 mM final concentration) followed by a 1-hour incubation on ice. Samples were then dialyzed against PBS.
Various normal and tumor tissue sections were stained with biotinylated antibodies. A mouse monoclonal anti-Tie1 antibody (7e8) (Alitalo laboratory, University of Helsinki) was used as a positive control. Sections without primary antibody served as negative control. All samples were fresh frozen tissues and staining was performed with the TSA-kit (Perkin-Elmer Life Sciences). After acetone fixation (10-20 min, −20° C.) the slides were treated with 0.73% H2O2 for 10 min to reduce endogenous peroxidase activity followed by blocking for 30 min with TNB buffer. Sections ([…] thick) were incubated with primary antibodies (10 μg/ml) overnight at 4° C. Sections with the mouse monoclonal anti-tie1 antibody (7e8) were treated with biotinylated anti-mouse antibodies (VectaStain) before the addition of streptavidin-HRP. Signal was amplified by using a TSA kit and the visualized by AEC (235 ml NaAc,15 ml AEC (stock solution: 1600 mg 3-amino-9-ethyl-carbazole and 480 ml N-dimethylformamide), 250 μl H2O2).

[2] = test system: human platelets; assay: Flow cytometry on human platelets; type: binding; details: total (CD42) and thrombin-activated (CD62) platelets
Experimental: To avoid platelet activation, human platelets were isolated from plasma of healthy donors using the platelet GelSep kit (Biocytex, Marseille, France) kit according to the guidelines of the manufacturer. Platelets were activated by the addition of thrombin to a final concentration of 0.8 U/ml. To distinguish activated from non-activated platelets double staining was performed with Tie1 antibodies/control antibodies and antibody CD42 (total platelets) or CD62 (activated platelets).
After preparation, platelets were resuspended in buffer 2 of the GelSep kit, 10% heat inactivated human serum (incubation buffer) and incubated for 1 hour. […] Platelets were spun down by centrifugation for 10 min at 611 g. Between incubations platelets were washed twice with Buffer 1 of the GelSep kit. Then, Strepatvidin-R-phycoerythrin together with anti-CD42-PercP or anti-CD62-PercP were incubated for 30 minutes at room temperature in incubation buffer After the last incubation and washing detection of bound antibodies was performed by means of flow cytometry on a FACSscan and Epics Altra (Becton Dickinson, Oxnard, Coulter,) and results analyzed. Cells were gated on SSC and anti-CD42-PercP for the total platelets in case non-activated platelets were used and on SSC and anti-CD62-PercP for the activated platelets. […]

[3] = test system: LEII lung mouse endothelial cell line; assay: Tube formation by mouse endothelial cell line LEII on […]; type: cell-based; details: LEII cells on MATRIGEL, 16 to 18 hours
Experimental: In order to assess mouse Tie1 cross-reactivity and biological activity on mouse Tie1, both E3 and germlined E3 were evaluated for their ability to inhibit tube formation in vitro using mouse endothelial cell line (LEII).
LEII lung mouse endothelial cell line (ATCC) was cultured in a T-25 flask in MEM medium with GLUTAMAX™ (Life Technologies Ltd., Paisley, Scotland) supplemented with 10% FCS, and 1% penicillin/streptomycin. During culturing, the cells were kept in a proliferative state by culturing them in a split ratio 1:5 at an approximate density of the monolayer of about 80%. LEII monolayers were treated with trypsin/EDTA (500 μl/dish) at 37° C. for 3 min. Trypsin activity was stopped by adding 3 volumes of complete MEM medium. The cells were carefully scraped, separated by repeated pipetting, and finally washed with PBS.LEII cells were seeded in their culture medium (20-40×103/50 μl/well of a 96-well plate) on a basement membrane (BIOCOAT™ Angiogenesis System; Becton Dickinson). […] The total length of the tube network was then quantified at 40× magnification by the METAVUE™ Software (Universal Imaging Corporation). Results from triplicate wells were expressed as mean vessel area per field ±SEM (relative units). […]

Tie1, sequence (P35590 22-1138): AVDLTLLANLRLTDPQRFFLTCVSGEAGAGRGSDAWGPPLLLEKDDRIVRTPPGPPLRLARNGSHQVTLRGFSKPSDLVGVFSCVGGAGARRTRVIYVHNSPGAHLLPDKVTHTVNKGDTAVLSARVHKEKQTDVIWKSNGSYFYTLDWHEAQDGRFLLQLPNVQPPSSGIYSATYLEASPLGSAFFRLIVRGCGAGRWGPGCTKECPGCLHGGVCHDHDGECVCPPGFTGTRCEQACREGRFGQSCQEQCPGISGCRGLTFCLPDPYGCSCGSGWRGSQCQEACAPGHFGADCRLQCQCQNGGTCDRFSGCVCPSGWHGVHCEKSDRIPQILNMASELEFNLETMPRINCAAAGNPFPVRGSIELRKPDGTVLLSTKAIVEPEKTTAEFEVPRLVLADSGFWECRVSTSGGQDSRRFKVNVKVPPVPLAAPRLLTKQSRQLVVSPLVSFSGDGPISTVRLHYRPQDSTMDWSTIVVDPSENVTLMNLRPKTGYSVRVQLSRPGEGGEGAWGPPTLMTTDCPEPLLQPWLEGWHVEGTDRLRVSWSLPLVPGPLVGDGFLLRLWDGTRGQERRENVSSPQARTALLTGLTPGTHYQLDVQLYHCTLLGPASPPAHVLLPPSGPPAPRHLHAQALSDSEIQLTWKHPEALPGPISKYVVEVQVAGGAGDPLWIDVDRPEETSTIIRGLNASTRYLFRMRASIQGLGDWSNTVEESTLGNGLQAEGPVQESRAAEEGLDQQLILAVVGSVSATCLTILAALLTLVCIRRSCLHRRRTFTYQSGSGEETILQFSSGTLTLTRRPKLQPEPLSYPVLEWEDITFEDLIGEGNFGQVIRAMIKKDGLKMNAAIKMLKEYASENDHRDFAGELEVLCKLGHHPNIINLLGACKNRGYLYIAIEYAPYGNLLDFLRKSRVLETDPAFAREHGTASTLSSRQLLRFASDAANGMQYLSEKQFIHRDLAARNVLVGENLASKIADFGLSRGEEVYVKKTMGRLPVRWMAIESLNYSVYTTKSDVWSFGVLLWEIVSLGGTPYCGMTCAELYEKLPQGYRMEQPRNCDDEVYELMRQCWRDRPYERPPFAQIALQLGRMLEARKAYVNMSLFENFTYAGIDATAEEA

Molecule	staining of breast (mammary tissue) ([1]; 10 μg/ml)	staining of breast carcinoma ([1]; 10 μg/ml)	staining of hypernephroma tissue ([1]; 10 μg/ml)	staining of kidney ([1]; 10 μg/ml)	staining of lung carcinoma ([1]; 10 μg/ml)	staining of melanoma tissue ([1]; 10 μg/ml)	staining of normal lung ([1]; 10 μg/ml)	staining of normal skin ([1]; 10 μg/ml)	tissue specificity of vessel staining in normal tissues ([1]; biotinylated antibody 10 μg/ml)	binding to platelets [2]	binding to platelets ([2]; listed as DX-2200)	inhibition of tube formation in mouse endothelial cells [3]
B1	brightest staining in the veins and capillaries of the mammary tissue	stained also other structures in addition to vessels	clear staining	stained kidney tubules in addition to the vessels	stained structures other than vessels	also stained other surrounding structures	stained especially clearly the large veins in the lung	stained blood vessels very faintly	stained vessels in the lung and kidney but not in the skin	Only a background number of CD42 positive cells are labeled; also recorded: no significant binding to total platelets, nor to activated platelets	did not show significant binding to platelets	
B2												potent inhibitor of tube formation in mouse endothelial cells
